For this test, the target named is β-galactosidase (β-gal, Sigma) (E. coli) [β-galactosidase: P00722]. Put plainly: panning of mixtures with wt scFv13-SecM17 ARM complexes in 10:1, 100:1, 1,000:1 or 10,000:1 excess on immobilized β-gal; 10 clones sequenced per mixture.
β-galactosidase (β-gal, Sigma) (E. coli) [β-galactosidase: P00722], sequence (P00722 2-1024 limits assumed): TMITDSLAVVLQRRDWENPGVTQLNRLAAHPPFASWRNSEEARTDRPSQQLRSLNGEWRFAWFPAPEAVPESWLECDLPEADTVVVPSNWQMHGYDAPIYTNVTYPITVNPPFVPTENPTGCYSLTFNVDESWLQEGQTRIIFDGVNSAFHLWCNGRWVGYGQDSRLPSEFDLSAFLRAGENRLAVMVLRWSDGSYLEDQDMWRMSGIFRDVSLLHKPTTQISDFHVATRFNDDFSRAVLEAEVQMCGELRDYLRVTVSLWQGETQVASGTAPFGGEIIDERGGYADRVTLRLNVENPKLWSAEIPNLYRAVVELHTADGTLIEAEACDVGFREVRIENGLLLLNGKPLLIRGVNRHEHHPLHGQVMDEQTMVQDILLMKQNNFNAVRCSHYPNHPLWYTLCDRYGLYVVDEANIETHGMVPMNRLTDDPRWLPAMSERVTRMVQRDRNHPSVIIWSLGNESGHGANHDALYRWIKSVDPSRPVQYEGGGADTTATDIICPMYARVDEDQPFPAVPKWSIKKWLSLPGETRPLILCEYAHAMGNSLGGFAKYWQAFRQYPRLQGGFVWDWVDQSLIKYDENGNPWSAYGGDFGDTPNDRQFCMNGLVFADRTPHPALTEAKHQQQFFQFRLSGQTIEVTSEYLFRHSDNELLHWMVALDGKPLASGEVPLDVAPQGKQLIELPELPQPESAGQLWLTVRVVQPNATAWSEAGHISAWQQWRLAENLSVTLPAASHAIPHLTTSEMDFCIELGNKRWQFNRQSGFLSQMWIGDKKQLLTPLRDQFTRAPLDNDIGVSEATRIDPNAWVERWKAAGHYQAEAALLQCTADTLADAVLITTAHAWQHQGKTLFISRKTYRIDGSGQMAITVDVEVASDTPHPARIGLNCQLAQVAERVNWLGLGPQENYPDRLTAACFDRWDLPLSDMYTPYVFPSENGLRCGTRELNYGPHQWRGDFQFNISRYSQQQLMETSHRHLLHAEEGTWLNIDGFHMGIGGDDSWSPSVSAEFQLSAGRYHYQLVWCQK

For scFv13-R4-SecM17 fusion, the share of sequenced clones recovered after panning stood at 100%.

These data come from patent US20110008774A1.
